A value given as a limit tells only on which side of the number the result lay.

The target in one test is HA-tagged ASC (human, UniProt Q9ULZ3 1-195, limits assumed). In words: cell-based or functional assay.
Test [1] concerns the target T1, ASC-YFP stably expressed in HEK293 cells (UniProt Q9ULZ3 1-195).
T1 construct: also called YFP-ASC; HEK293-ASC-YFP; not shown: YFP
Description: confocal microscopy, HEK293-ASC-YFP cells transfected with PYD-CFP. The protocol: Fluorescence intensities of the green (YFP-ASC) and red (PYD-CFP) channels were quantified along selected lines (white lines) and the percentage of ASC-YFP speckles per transfected cells assessed (panel b). c) 293T cells were transfected with expression plasmids encoding HAtagged ASC and CFP-tagged constructs as in panel a. The protein levels of the CFP-tagged PYD proteins in cell lysates were assessed by immunoblot analysis (INPUT, upper panels). Cell extracts were immunoprecipitated (IP) with anti-HA antibodies and immunoblotted (WB) with anti-HA antibody and anti-CFP antibody (lower panel). d) ASC was immunoprecipitated from THP-1 cell lysates primed with Sendai virus, whereas beads without anti-ASC antibody served as a negative control. The presence of ASC, PYHIN-2 and AIM2 was assessed by immunoblot analysis in the cell lysate and the ASC immunoprecipitation. The band above the AIM2 band in the ASC immunoprecipitation corresponds to the heavy chain of the anti-ASC antibody that is also detected by the secondary antibody. E) 293T cells were transfected with a multimerized NF-″B luciferase reporter construct together with fixed amounts of constructs as in (a) alone or together with increasing amounts of ASC. Cellular NF-″B activation was quantified in cell lysates 24 hours after transfection. Data of one representative experiment out of three (panels a, b, c and d) or two (panel e) are depicted.
To study the possibility that these PYHIN proteins associated with ASC in the cytosol, C-terminally tagged CFP PYD-domain fusions were generated. Of note, the putative nuclear localization sequences were predicted to localize to the […] of these molecules. Consistent with these predictions, all of the PYD-CFP fusion proteins were localized in the cytoplasm and formed large cytosolic aggregates in a portion of the cells (FIG. 6).

T1 sequence (Q9ULZ3 whole entry): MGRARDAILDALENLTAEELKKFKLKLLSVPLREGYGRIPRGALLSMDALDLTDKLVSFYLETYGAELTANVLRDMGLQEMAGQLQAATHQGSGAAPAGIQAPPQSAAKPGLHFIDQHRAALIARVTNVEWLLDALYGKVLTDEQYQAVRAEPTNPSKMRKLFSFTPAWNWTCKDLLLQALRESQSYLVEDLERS
Chain of HA-tagged ASC (Q9ULZ3 whole entry): as above

B1: Full length human AIM2 (AS 1-356) C-terminally tagged with CFP (other, UniProt O14862 1-343, looked up, not shown: large carriers)
chain: MESKYKEILLLTGLDNITDEELDRFKFFLSDEFNIATGKLHTANRIQVATLMIQNAGAVSAVMKTIRIFQKLNYMLLAKRLQEEKEKVDKQYKSVTKPKPLSQAEMSPAASAAIRNDVAKQRAAPKVSPHVKPEQKQMVAQQESIREGFQKRCLPVMVLKAKKPFTFETQEGKQEMFHATVATEKEFFFVKVFNTLLKDKFIPKRIIIIARYYRHSGFLEVNSASRVLDAESDQKVNVPLNIIRKAGETPKINTLQTQPLGTIVNGLFVVQKVTEKKKNILFDLSDNTGKMEVLGVRNEDTMKCKEGDKVRLTFFTLSKNGEKLQLTSGVHSTIKVIKAKKKT
Regarding B1, the “NF-kappaB luciferase reporter activation in 293T cells” value in the test with HA-tagged ASC was no more than 60 fold.

B2: PYHIN3-PYD (1-84) C-terminally tagged with CFP (other, human, UniProt P41218 1-84, looked up)
chain: MVNEYKKILLLKGFELMDDYHFTSIKSLLAYDLGLTTKMQEEYNRIKITDLMEKKFQGVACLDKLIELAKDMPSLKNLVNNLRK
notes: range 1-84; also called MNDA PYD; not shown: C-terminal CFP from vector pEFBOS-C-term-CFP
On to B2, for which the binding result in test [1] is on record as “no binding”.

B3: PYHIN2-PYD (1-84) C-terminally tagged with CFP (other, human, UniProt Q16666 1-84, looked up)
chain: MGKKYKNIVLLKGLEVINDYHFRMVKSLLSNDLKLNLKMREEYDKIQIADLMEEKFRGDAGLGKLIKIFEDIPTLEDLAETLKK
notes: range 1-84; also called IFI16 PYD; not shown: C-terminal CFP from vector pEFBOS-C-term-CFP
B3: in test [1], the binding result is “no binding”.

B4: PYHIN1-PYD (1-84) C-terminally tagged with CFP (other, human, UniProt Q6K0P9 1-84, looked up)
chain: MANNYKKIVLLKGLEVINDYHFRIVKSLLSNDLKLNPKMKEEYDKIQIADLMEEKFPGDAGLGKLIEFFKEIPTLGDLAETLKR
notes: range 1-84; also called IFIX PYD; not shown: C-terminal CFP from vector pEFBOS-C-term-CFP
B4: the binding result in test [1] was “no binding”.

Values taken from US20100120894A1 (UNIVERSITY OF MASSACHUSETTS, published 2010).
